Results on one sequence are retold here after paper doi:10.1101/666776.

The test system of this data set is Cascade/I-C (Cas5, Cas8c, Cas7 with crRNA) (Bacillus halodurans C-125). Put plainly: EMSA?
On the technique in general: In EMSA bound probe runs differently from free probe, usually more slowly.

Broadly, the Kd is the constant that tells how readily two partners part at equilibrium. In the case of “TACTTCCAATCCAATGCAGGTACCATCGAAAGTAACTCCATCCATAACTAAGCAACCTGTACTAGTAATCGAAAGCTTTTATCCACTTCCAATGTTATTA (double strand) [100 bp target, TTC PAM]”, the Kd is 148 nM.
